This note sets out measurements from patent US6905854B2, “Mutated penicillin expandase and process for preparing 7-ADCA using the same” (Synmax Biochemical Co., Ltd., priority 2002, dated 2005).

The nature of data set [1]: Kinetic assay of purified DAOCS with penicillin N as main substrate. In kind it is biochemical. The settings on record: for penicillin N, 0.5 μg purified DAOCS, 30° C., 10 minutes; for Km: triplicate, Hanes-Woolf Plot. On the procedure:
(§1) The cell extract (2 ml) of a candidate mutant was applied onto a HiTrap Q column (5 ml) pre-equilibrated with buffer B (50 mM Mops/pH 7.5, 1 mM DTT, 0.4 mM pefabloc SC, and 0.5 μg/ml leupeptin). Then, the column was washed with 20 ml of buffer B, followed by a further wash with 25 ml of buffer B containing 120 mM NaCl, and DAOCS was eluted off with 20 ml of buffer B containing 150 mM NaCl. The DAOCS containing fractions were pooled (10 ml), concentrated by UF 15 device (NMWL 5K; Millipore), and loaded onto a Hiload Superdex 75 (16/60) column pre-equilibrated with buffer B at a flow rate of 1 ml/min.
(§2) The standard penicillin G assay was followed for kinetic assay, but 20 μg of purified DAOCS was used and the concentration of α-ketoglutarate was reduced to 1 mM. Kinetic parameters were obtained from triplicate experiments by Hanes-Woolf Plot. For assays using penicillin N as a main substrate, a total volume of 240 μl reaction containing 50 mM Hepes/pH 7.5, 0.4 mM ascorbate, 0.1 mM FeSO4, 0.1 mM α-ketoglutarate, 0.1 mM penicillin N and 0.5 μg of purified DAOCS was incubated at 30° C. for 10 minutes, then the same volume of 10 mM EDTA/pH 7.5 was added, and the mixture was subjected to ultrafiltration with UF 0.5 device (NMWL 5000, Millipore). The filtrate was analyzed by HPLC using 25 mM potassium phosphate/pH 6.5 as a mobile phase. The retention time of DAOC and penicillin N was 12 minutes and 13.5 minutes, respectively The results of kinetic parameters are shown in Table 1, wherein the definition and calculation of the parameters are described in Lehninger et al. Principles of Biochemistry, 2nd Ed. Worth Publishers, New York (1993) which is incorporated herein for reference.

Data set [2] can be described thus: Kinetic assay of purified DAOCS with penicillin G (standard penicillin G assay, HPLC of cephalosporin G). In kind it is biochemical. As to conditions: for penicillin G, 20 μg purified DAOCS, 1 mM α-ketoglutarate, 30° C.; for Km: triplicate, Hanes-Woolf Plot. The protocol:
For penicillin G, 20 μl of cell extracts was added into a standard 200 μl assay reaction containing 50 mM Mops/pH 7.5, 4 mM ascorbate, 1 mM FeSO4, 4 mM α-ketoglutarate and 7 mM penicillin G, and incubated at 30° C. for 20 minutes. The reaction was stopped by addition of 200 μl of ethanol, followed by a centrifugation at 15,000×g for 5 minutes. The concentration of cephalosporin G in supernatant was analyzed by HPLC with 40 μl injection. The mobile phase was 25 mM potassium phosphate/pH 6.5 with 19% acetonitrile at a flow rate of 1 ml/min. The retention time for cephalosporin G was 8.5 minutes and 12.5 minutes for penicillin G with detection at 215 nm, and the product at 8.5 minutes in DAOCS reaction was confirmed by ESI-LC/MS (positive): [M+H]^+=333. […] The different combinations of the mutated amino acids mentioned above were also constructed by site-directed mutagenesis.
as §1, §2

What is called Km is the concentration of substrate that gives half-maximal velocity.

B1: YS125: mutated DAOCS with substitution N304L as disclosed in Chin H. S. et al (protein, UniProt P18548 1-311, looked up, variant N304L)
Deacetoxycephalosporin C …: MDTTVPTFSLAELQQGLHQDEFRRCLRDKGLFYLTDCGLTDTELKSAKDLVIDFFEHGSEAEKRAVTSPVPTMRRGFTGLESESTAQITNTGSYSDYSMCYSMGTADNLFPSGDFERIWTQYFDRQYTASRAVAREVLRATGTEPDGGVEAFLDCEPLLRFRYFPQVPEHRSAEEQPLRMAPHYDLSMVTLIQQTPCANGFVSLQAEVGGAFTDLPYRPDAVLVFCGAIATLVTGGQVKAPRHHVAAPRRDQIAGSSRTSSVFFLRPNADFTFSVPLARECGFDVSLDGETATFQDWIGGNYVLIRRTSKA
For the molecule B1, in data set [1], the kcat was determined as 0.415 ± 0.063 S^−1 and the Michaelis constant (Km) was 18 ± 4 µM. Moreover, in data set [2], the kcat is 0.0402 ± 0.0006 S^−1 and the Michaelis constant (Km) came to 550 ± 120 µM.

B2: YS59: mutated penicillin expandase (DAOCS) with substitution G79E (protein, UniProt P18548 1-311, looked up, variant G79E)
Deacetoxycephalosporin C …: MDTTVPTFSLAELQQGLHQDEFRRCLRDKGLFYLTDCGLTDTELKSAKDLVIDFFEHGSEAEKRAVTSPVPTMRRGFTELESESTAQITNTGSYSDYSMCYSMGTADNLFPSGDFERIWTQYFDRQYTASRAVAREVLRATGTEPDGGVEAFLDCEPLLRFRYFPQVPEHRSAEEQPLRMAPHYDLSMVTLIQQTPCANGFVSLQAEVGGAFTDLPYRPDAVLVFCGAIATLVTGGQVKAPRHHVAAPRRDQIAGSSRTSSVFFLRPNADFTFSVPLARECGFDVSLDGETATFQDWIGGNYVNIRRTSKA
For the molecule B2, in data set [1], the kcat was determined as 0.178 ± 0.019 S^−1 and the Michaelis constant (Km) came to 9 ± 3 µM. For the same molecule, in data set [2], the kcat came out at 0.0315 ± 0.0003 S^−1 and the Km was determined as 750 ± 20 µM.

B3: YS87: mutated penicillin expandase (DAOCS) with substitution T91A (protein, UniProt P18548 1-311, looked up, variant T91A)
Deacetoxycephalosporin C …: MDTTVPTFSLAELQQGLHQDEFRRCLRDKGLFYLTDCGLTDTELKSAKDLVIDFFEHGSEAEKRAVTSPVPTMRRGFTGLESESTAQITNAGSYSDYSMCYSMGTADNLFPSGDFERIWTQYFDRQYTASRAVAREVLRATGTEPDGGVEAFLDCEPLLRFRYFPQVPEHRSAEEQPLRMAPHYDLSMVTLIQQTPCANGFVSLQAEVGGAFTDLPYRPDAVLVFCGAIATLVTGGQVKAPRHHVAAPRRDQIAGSSRTSSVFFLRPNADFTFSVPLARECGFDVSLDGETATFQDWIGGNYVNIRRTSKA
For the molecule B3, the kcat in data set [1] came to 0.247 ± 0.006 S^−1; in data set [2] it was 0.0522 ± 0.0004 S^−1. The Km in data set [1] came to 9 ± 0.5 µM; in data set [2], 1360 ± 90 µM.

B4: YS5: mutated penicillin expandase (DAOCS) with substitution V275I (protein, UniProt P18548 1-311, looked up, variant V275I)
Deacetoxycephalosporin C …: MDTTVPTFSLAELQQGLHQDEFRRCLRDKGLFYLTDCGLTDTELKSAKDLVIDFFEHGSEAEKRAVTSPVPTMRRGFTGLESESTAQITNTGSYSDYSMCYSMGTADNLFPSGDFERIWTQYFDRQYTASRAVAREVLRATGTEPDGGVEAFLDCEPLLRFRYFPQVPEHRSAEEQPLRMAPHYDLSMVTLIQQTPCANGFVSLQAEVGGAFTDLPYRPDAVLVFCGAIATLVTGGQVKAPRHHVAAPRRDQIAGSSRTSSVFFLRPNADFTFSIPLARECGFDVSLDGETATFQDWIGGNYVNIRRTSKA
Take B4: in data set [1], the kcat is reported as 0.252 ± 0.020 S^−1 and the Km turned out to be 12 ± 3 µM. Besides, in data set [2], the kcat came out at 0.0502 ± 0.0012 S^−1 and the Km is 1680 ± 200 µM.

B5: YS115: mutated penicillin expandase (DAOCS) with substitution M73T (protein, UniProt P18548 1-311, looked up, variant M73T)
Deacetoxycephalosporin C …: MDTTVPTFSLAELQQGLHQDEFRRCLRDKGLFYLTDCGLTDTELKSAKDLVIDFFEHGSEAEKRAVTSPVPTTRRGFTGLESESTAQITNTGSYSDYSMCYSMGTADNLFPSGDFERIWTQYFDRQYTASRAVAREVLRATGTEPDGGVEAFLDCEPLLRFRYFPQVPEHRSAEEQPLRMAPHYDLSMVTLIQQTPCANGFVSLQAEVGGAFTDLPYRPDAVLVFCGAIATLVTGGQVKAPRHHVAAPRRDQIAGSSRTSSVFFLRPNADFTFSVPLARECGFDVSLDGETATFQDWIGGNYVNIRRTSKA
Turning to B5, the kcat in data set [1] is 0.239 ± 0.009 S^−1; in data set [2], 0.0627 ± 0.0021 S^−1. In addition, the Michaelis-Menten constant (Km) in data set [1] was found to be 6 ± 3 µM; in data set [2] it was 740 ± 160 µM.

B6: YS53: mutated penicillin expandase (DAOCS) with substitution C281Y (protein, UniProt P18548 1-311, looked up, variant C281Y)
Deacetoxycephalosporin C …: MDTTVPTFSLAELQQGLHQDEFRRCLRDKGLFYLTDCGLTDTELKSAKDLVIDFFEHGSEAEKRAVTSPVPTMRRGFTGLESESTAQITNTGSYSDYSMCYSMGTADNLFPSGDFERIWTQYFDRQYTASRAVAREVLRATGTEPDGGVEAFLDCEPLLRFRYFPQVPEHRSAEEQPLRMAPHYDLSMVTLIQQTPCANGFVSLQAEVGGAFTDLPYRPDAVLVFCGAIATLVTGGQVKAPRHHVAAPRRDQIAGSSRTSSVFFLRPNADFTFSVPLAREYGFDVSLDGETATFQDWIGGNYVNIRRTSKA
For B6, in data set [1], the kcat was 0.273 ± 0.014 S^−1 and the Km came to 6 ± 1 µM. Besides, in data set [2], the kcat amounted to 0.0744 ± 0.0033 S^−1 and the Km was found to be 680 ± 340 µM.

B7: YS123: mutated penicillin expandase (DAOCS) with substitution H244Q (protein, UniProt P18548 1-311, looked up, variant H244Q)
Deacetoxycephalosporin C …: MDTTVPTFSLAELQQGLHQDEFRRCLRDKGLFYLTDCGLTDTELKSAKDLVIDFFEHGSEAEKRAVTSPVPTMRRGFTGLESESTAQITNTGSYSDYSMCYSMGTADNLFPSGDFERIWTQYFDRQYTASRAVAREVLRATGTEPDGGVEAFLDCEPLLRFRYFPQVPEHRSAEEQPLRMAPHYDLSMVTLIQQTPCANGFVSLQAEVGGAFTDLPYRPDAVLVFCGAIATLVTGGQVKAPRHQVAAPRRDQIAGSSRTSSVFFLRPNADFTFSVPLARECGFDVSLDGETATFQDWIGGNYVNIRRTSKA
As to B7, the kcat was 0.260 ± 0.006 S^−1 in data set [1] and 0.0698 ± 0.0012 S^−1 in data set [2]. For the same molecule, the figures for the Km in data set [1] and in data set [2] were 9 ± 1.5 µM and 1390 ± 90 µM, respectively.

B8: YS110: mutated penicillin expandase (DAOCS) with substitution Y184H (protein, UniProt P18548 1-311, looked up, variant Y184H)
Deacetoxycephalosporin C …: MDTTVPTFSLAELQQGLHQDEFRRCLRDKGLFYLTDCGLTDTELKSAKDLVIDFFEHGSEAEKRAVTSPVPTMRRGFTGLESESTAQITNTGSYSDYSMCYSMGTADNLFPSGDFERIWTQYFDRQYTASRAVAREVLRATGTEPDGGVEAFLDCEPLLRFRYFPQVPEHRSAEEQPLRMAPHHDLSMVTLIQQTPCANGFVSLQAEVGGAFTDLPYRPDAVLVFCGAIATLVTGGQVKAPRHHVAAPRRDQIAGSSRTSSVFFLRPNADFTFSVPLARECGFDVSLDGETATFQDWIGGNYVNIRRTSKA
As to B8, in data set [1], the kcat stood at 0.048 ± 0.005 S^−1 and the Michaelis-Menten constant (Km) is 295 ± 30 µM. In addition, in data set [2], the kcat amounted to 0.0798 ± 0.0012 S^−1 and the Km worked out at 950 ± 50 µM.

B9: YS103: mutated penicillin expandase (DAOCS) with substitution M188V (protein, UniProt P18548 1-311, looked up, variant M188V)
Deacetoxycephalosporin C …: MDTTVPTFSLAELQQGLHQDEFRRCLRDKGLFYLTDCGLTDTELKSAKDLVIDFFEHGSEAEKRAVTSPVPTMRRGFTGLESESTAQITNTGSYSDYSMCYSMGTADNLFPSGDFERIWTQYFDRQYTASRAVAREVLRATGTEPDGGVEAFLDCEPLLRFRYFPQVPEHRSAEEQPLRMAPHYDLSVVTLIQQTPCANGFVSLQAEVGGAFTDLPYRPDAVLVFCGAIATLVTGGQVKAPRHHVAAPRRDQIAGSSRTSSVFFLRPNADFTFSVPLARECGFDVSLDGETATFQDWIGGNYVNIRRTSKA
As for B9, in data set [1], the kcat worked out at 0.084 ± 0.002 S^−1 and the Michaelis constant (Km) was 47 ± 0.5 µM. Also, in data set [2], the kcat is 0.0456 ± 0.0016 S^−1 and the Michaelis-Menten constant (Km) turned out to be 760 ± 170 µM.
